Biological target: death receptor 4 (DR4) on Ramos cells (human) (UniProt O00220)
Assay: cell-based or functional assay

B1: HuYON007 IgG1 (antibody, V domains shown)
VH: QVTLRESGPALVKPTQTLTLTCTFSGFSLSTSGMGVSWIRQPPGKALEWLAHIYWDDDKRYNPSLKSRLTISKDTSKNQVVLTMTNMDPVDTATYYCTRRGEYGNFDYWGQGTLVTVSS
VL: QTVVTQEPSFSVSPGGTVTLTCRSSSGAVTTSNFANWVQQTPGQAPRGLIGGTNNRAPGVPDRFSGSLLGNKAALTITGAQADDESDYYCALWYSNHWVFGGGTKLTVL
viability of Ramos cells at 6.2 ng/ml antibody: 100%
viability of Ramos cells at 111 ng/ml antibody (alamar Blue, overnight): 78.3%

— US20150038682A1
